Results on two substances are retold here after PMC3556581.

The assay addresses parental cyclophilin A (CypA) (rhesus macaque; identical in sequence to human CypA) (UniProt P62940). Put plainly: ITC. Background: ITC needs no label: the signal is the heat of the interaction.

As a reminder, the Kd is the equilibrium constant for the complex coming apart. “HIV-1 N-terminal capsid (CA^N) domain (domain or fragment)”: the Kd came to 5 µM and the dH is -6.05 kcal/mol.
Consider “HIV-2 CA^N domain with CA Ala88 introduced (from UniProt P04590 136-279) (domain or fragment)”, for which the dissociation constant Kd amounted to 8 µM.
